Patent US20240279618A1, “RECEPTOR TYROSINE KINASE AGONIST, COMPOSITION FOR CELL CULTURE MEDIUM, AND […] MAINTENANCE COMPOSITION” (SEKISUI CHEMICAL CO., LTD., priority 2021, published 2024)

B1: VHH Clone #2: alpaca-derived VHH single-domain antibody (monomer) binding FGFR1, amino acid sequence SEQ ID NO: 18 (protein)
VHH: QVQLVESGGGLVQAGGSLRLSCAVPGSIFRFNTMGWYRQPPGKQRELVAQMSRGGITKYGDSVKGRFTITRDNAKNTVHLQMNSLKPEDTAVYYCAGSYYSGSYYYPSPQGFSVWGQGTQVTVSP
modifications: VHH_Clone_#2
B2: #1-L4-#1: dimer of VHH #1 with linker L4 (GSEGKSSGSGSESKST), SEQ ID NO: 23 (protein)
VHH: QLQLVESGGGSVQAGGSLRLSCAASRSLSRFNVWTWYRQAPVKQRELVASITKSGDTNYAESVKGRFIISRDDDKNTVYLQMNNLKSEDTGIYYCAGSYYSGSYLYPSPGGFSVWGQGTQVTVSSGSEGKSSGSGSESKSTQLQLVESGGGSVQAGGSLRLSCAASRSLSRFNVWTWYRQAPVKQRELVASITKSGDTNYAESVKGRFIISRDDDKNTVYLQMNNLKSEDTGIYYCAGSYYSGSYLYPSPGGFSVWGQGTQVTVSS
modifications: #1-L4-#1

What was measured:
[1] = test system: NIH3T3 (mouse fibroblast cell line); experiment: Cell growth assay with NIH3T3 (Cell Titer Glo luminescence); assay type: cell-based
Method: As a cell for measuring a cell growth activity, NIH3T3 (mouse fibroblast cell line) was obtained from ECACC through a domestic agent. The cell which was subjected to extended culture according to an ordinary method, and then freeze-preserved at −80° C. using CellBankeR1 plus (manufactured by Xenoac Co., Ltd.) was used. […]
The cell growth assay for FGF2 was performed according to the following procedure. […] The plate was further left to stand for 8 minutes, and then the luminescence in each well was measured with a Synergy HTX plate reader (manufactured by BioTek) with a sensitivity set (Gain) of 200 and a measurement time of 1 s/well.
The measurement was performed at three points at each concentration of the test substance, for the measurement at a single concentration, 100 ng/ml of FGF2 was used as a positive control and a condition of no addition was used as a negative control, and the VHH monomer was prepared with uniform 100-fold dilution, and measured. […] EC50 measurement data were obtained according to an ordinary method using a control software attached to a plate reader. The EC50 value was calculated by applying the 4-parameter fit.
Each stock of the VHH monomer (Clone #1: 2.65 mg/mL; Clone #2: 0.82 mg/mL-PBS) was diluted 100-fold to check the presence or absence of the cell growth activity. […] The vertical axis in FIG. 15 indicates a relative luminescence amount. […]

[2] = test system: phospho-p44/42 MAPK (Erk½); experiment: Agonist activity by Western blotting in NIH3T3 cells; assay type: cell-based, mouse; details: VHH 100 nM, 30 minutes
Method: In order to verify the agonist activity for VHH-C(represented by #1_C in the drawing), #1-L4-#1, and #1_Fc, which were obtained in Examples above, the measurement was performed as described below using Western blotting for a change in expression level of Phospho-p44/42 MAPK (Erk½). Furthermore, a basic fibroblast growth factor (bFGF; manufactured by Fujifilm Wako Pure Chemical Corporation) was used as a positive control.
As NIH3T3, those described in Example 7 were used. NIH3T3 cells were seeded on a 6-well plate for cell culture at 2× 10^5 cells/well, and culture was performed overnight (37° C., in a 5% CO2 incubator, with light shielded). After washing with a serum-free medium, bFGF (final concentration: 10 ng/mL) or VHH (final concentration: 100 nM) diluted with the serum-free medium was added thereto, and normal culture was performed for 30 minutes. Thereafter, the well was washed with ice-cooled PBS, and the cells were peeled off with a cell scraper, transferred to a tube, and centrifuged at 300×g for 5 minutes at 4° C. to recover the cells. Thereafter, the cells were solubilized with a phosphatase inhibitor-containing RIPA buffer and left to stand on ice for 30 minutes. After the solubilization reaction, centrifugation was performed at 12,000×g for 15 minutes at 4° C. to recover the supernatant. […]

Molecule	cell growth activity (relative luminescence amount, RLU) ([1]; NIH3T3, serum-free, 2 days, 4-fold dilution series, compared with FGF2)	cell growth activity of VHH monomer (relative luminescence amount) ([1]; NIH3T3, stock diluted 100-fold (Clone #2: 8.20 μg/mL))	agonist activity (expression of phosphorylated p44/42 MAPK (Erk½)) [2]
B1	relative luminescence amount was low even at a high concentration	significantly exhibited a cell growth activity	
B2			exhibit an agonist activity
